Test results as given in US20100249021A1.

B1: polypeptide HR1 combined with HR2B (peptide)
peptide 1: KESTQKAIDGVTNKVNSIIDK
peptide 2: NAELLVLMENERTLDFHDSNVKN
B2: polypeptide HR1 combined with HR2C (peptide)
peptide 1: KESTQKAIDGVTNKVNSIIDK
peptide 2: FHDSNVKNLYDKVRLQ
B3: polypeptide HR1 combined with HR2A (peptide)
peptide 1: KESTQKAIDGVTNKVNSIIDK
peptide 2: RRIENLNKKMEDGFLDVWTY

What was measured:
Assay in all cases: cell-based or functional assay
[1] = target: membrane protein HA of recombinant avian influenza virus QH-WSN (HA of H5N1 strain A/bar-headed goose/Qinghai/1/05) (avian influenza virus H5N1, strain A/bar-headed goose/Qinghai/1/05)
[2] = target: membrane protein HA of recombinant human influenza virus A/WSN/33 (H1N1) (human influenza virus A/WSN/33 (H1N1)) (UniProt P03454)
[3] = target: membrane protein HA of recombinant avian influenza virus QH-WSN (HA of H5N1 strain A/bar-headed goose/Qinghai/1/05) (avian influenza virus H5N1, strain A/bar-headed goose/Qinghai/1/05); remark: listed apart in the source
[4] = target: membrane protein HA of recombinant human influenza virus A/WSN/33 (H1N1) (human influenza virus A/WSN/33 (H1N1)) (UniProt P03454); remark: listed apart in the source

Molecule	plaque inhibitory rate on cells expressing the fusion protein [1]	plaque inhibitory rate on cells expressing the fusion protein [2]	IC50, plaque inhibition on MDCK cells, peptide combination [3]	IC50, plaque inhibition on MDCK cells, peptide combination [4]
fusion protein HR1-EGFP expressed on the membrane of MDCK cells (from UniProt P08138 251-272)	25%	11%	–	–
fusion protein HR2-EGFP expressed on the membrane of MDCK cells (from UniProt P08138 251-272)	57.8%	43%	–	–
B1	–	–	36.7 µM	62.5 µM
B2	–	–	41.6 µM	30 µM
B3	–	–	43.6 µM	52.9 µM
